# Measurements as given in the nanobody polyreactivity screen of Harvey et al. (2022).
# Test: yeast display, Sf9 membrane polyspecificity reagent, FACS + sequencing; frameworks hold sequencing errors
# Outline: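 After 36–48 hours of galactose induction, yeast (Saccharomyces cerevisiae BJ5465) displaying a synthetic nanobody library were stained at 4 °C for 1 hour with 10% biotinylated, detergent-solubilized Sf9 membrane reagent. Streptavidin microbeads enriched the stained cells before FACS sorting into low and high (top ~1%) gates on anti-HA and streptavidin fluorescence. Each clone's polyreactivity label reflects its gate of origin.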
row,Sequence,polyreactivity (PSR sort gate)
1,QVQLVESGGGLVQAGASLRLSCAASGFTFTPYAMGWYRQAPGKEREMVAAISWGDGSTYYADSVKGRFTISRDNAKNTVYLQMNSLKPEDTAVYYCAADFDFYYDWIYYYWGQGTQVTVSS,high polyreactivity
2,QVQLVESGGGLVQAGGSLRLSCAASGRILARYAMGWYRQAPGKERELVASISRRGGSTYYADSVKGRFTISRDNAKNTVYLQMNSLKPEDTAVYYCNARGPVSSGYDYWGQGTQVTVSS,high polyreactivity
3,QVQLVESGGGLVQAGGRLRLSCAASGSTLSYYAMGWYIQAPGKERELVAAISFSGGSTYYADSVKGRFTISRDNAKNTVYLQMNSLKPEDTAVYYCNAPPLYRDEYWGQGTQVTVSS,high polyreactivity
4,QVQLVESGGGLVQAGGSLRLSCAASGRIFGQYAMGWYRQAPGKERELVASIRSGGSTNYADSVKGRFTISRDNAKNTVYLQMNSLKPADSAVYYCNRRSGRTSRFHDYGYWGQGTQVTVSS,high polyreactivity
5,QVQLVESGGGLVQAGGSLRLSCAASGSTFARYAMGWSRQAPGKERELVAAISDSSGSTYYADSVKGRFTISRDNAKNTVYLQMNSLKPEDTAVYYCRYYFGSGYYYWGQGTLVTVSS,high polyreactivity
6,QVQLVESGGGLVQAGGSLRLSCAASGRIFYYYAMGWYRQAPGKERELVAAISGGGGSTYYADSVKGRFTISRDNAKNTVYLQMNSLKPEDTAVYYCAAEGAKDYTVSYDYWGQGTQVTVSS,high polyreactivity
7,QVQLVESGGGLVQAGGSLRLSCAASGRIFGGNVRGWYRQAPGKERELVAGISFSGGSTYYADSVKGRFTISRDNAKNTVYLQMNSLKPEDTAHYYCAASTYQPGALPFDYWGQGTQVTVSS,low polyreactivity
8,QVQLVESGRGLVQAGGSLRLSCAASGSTFNSYAMGWYRQAPGKERELVAAIRWSGSSTYYADSVKGRFTISRDNAKNTVYLQMNSLKAEDTAVYYCSKGYSYGRPWDIYYYWGQGTQVTVSS,low polyreactivity
9,QVQLVESGGGLVQAGGSLRLSCAASGSIFAGNVMGWYRQAPGKERELVAAISRRGGRTYYADSVKGRFTISRDNAKNTVYLQMNSLKPEDTAVYYCAARRDPVLGKSDYWGQGTQVTVSS,high polyreactivity
10,QVQHVESGGGLVQAGGCLRVSCAASGRTFIYYAMGGYRPAPGKERELVAAITNRGGSTYYADSVKGRFTISRDNAQNTVYLLMNSLNPEDTAVYYCAARGKYPSASAYTYSYGYWGQGTQVTVSS,high polyreactivity
11,QVQLVESGGGLVQAGGSLRLSCAASGLIFGGNAMGWYRQAPGKERELVAAISRSTGRTYYADSVKGRFTISRDNAKNTVYLQMNSLKPEDTAVYYCNAVGYAFPSYDSWGQGTQVTVSS,high polyreactivity
12,QVQLVESGGGLVQAGGSLRISCAASGSTFWTYAMGWYRQAPGKERELVAAITTGGNTYYADSVKGRFTISRDNAKNTVYLQMNSLKPEDTAVYSCAAASWTYYYSQYGAVFREYDYWGQGTEVTVSS,low polyreactivity
13,QVQLVESGGGLVQAGGSLRLSCAASGSIFTPYAMGWYRQAPGKERELVAAISRSGGSTFYADSVKGRFTISRDNAKNSFYLQMNSLKPEDTAVYYFAVVASRSHTETPEYDYWGQGTQVTVSS,low polyreactivity
14,QVQLVESGGGLVQAGGSLSLSCAASGRILSLNAMGWYRQAPGKERELVAGIRKRGGSTYYADSVKGRFTISRDNAKNTVYLQMNSLKPEDTAVYYCAADGTLFSEYYWFFGYHDYWGQGTQVNVSS,high polyreactivity
15,QVQLVESGGGLVQAGGSLRLSCAASGFTYFYYAMGSYRQAPGKERELVASISWSGGSTYYADSVKGRFTISRDNAKNTVYLQMNSLKPEDTAVYYCAADVPFGGDYWGQGTQVTVSS,low polyreactivity
16,QVQLVESGGGLVQAGGSLRLSCAASGFTFRYYAMGWYRPAPGKERELVAAISSRGGSTYYADSVKGRFTISRDNAKNTVYLQINSLKPEDTAVYYCAVVRWRHYIFATYDYWGQGTQVTVSS,high polyreactivity
17,QVQLVESGGGLVQAGGSLRLSCAASGSILREYTMGWSRQAPGKEMELVAAITYSGDSTYYADSVKGRFTISRDNAKNTVYLHMNSLKPEDTAVYYCNKKYRSRWQGPFDYWGQGTLVTVSS,high polyreactivity
18,QVQLVESGGGLVQAGGSLRLSCAASGSTFKYYTMGWYRQAPGKERELVAAISYSGGSTYYADSVKGRFTISRDNAKNTVYLQMNSLKPEDTAVYYCAALRYADYDYWGQGTQVTVSS,high polyreactivity
19,QVQLVESGGGLVQAGGSLRLSCAASGIIFGTYAMGWYRQAPGKERELVAAINWSGGSTYYADSVKGRFTISRDNAKNTVYLQMNSLKPEDTAVYYCAADGNEYDYWGQGTQVSVSS,low polyreactivity
20,QVQLVESGGGLVQAGGSLRLSCAASGSTFYVNAMGWYRQTPGKEREFVAAITWNSGSTYYADSVKGRFTISRDNEKNTVYLQMNSLKPEDTAVYYCAAVLSVRVYGYDYWGQGTQVTVSS,low polyreactivity
21,QVQLVESGGGLVQAGGSLRLSCADSGSISYSYAMGWYRQAPGKDRELVAAISWRGVSTYYADSVKGRFTISRDNAKNTVYLQMNSLKPEDTAVYYCNAVHHYPEHIGGGYWGQGTLVTVSS,low polyreactivity
22,QVLLVESGGGLVQAGGSLRLSCAASGSIFYGYPMGWYRQAPGKERELVADIRSSGGSTYYADSVKGRFTISRDNAMNTVYLQMNSLKPEDTAVYYCAADSQELHQNSDYWGQGTQVTVSS,low polyreactivity

row,Sequence,polyreactivity (PSR sort gate)
1,QVQLVESGGGLVQAGGSLRLSCAASGRTFGLYAMGWYRQAPGKVRELVAAISWGGGRTYYADSVKGRFSISRDNAKNSVYLQMNSLKPEDTAVYYCNAVYSPRDYVGGYDYWGQGTQVTVSS,high polyreactivity
2,QVQLVETGGGLVQAGGSLRLSCAPSGFIFYRNTMGWYRQAPGKERELDATISRRGGSTYYADSVKGRFTISRDNAKNTVYLQMNSLKPEDTAVYYCADGPRFSYYTHRYGYWGEGTQVTVSS,high polyreactivity
3,QVQLVESGGGLVQAGGSLRLSCAASGFTFHPNAMGWYRPAPGKERELVAAISTRGGSTAYADSVKGRFTISRDNAKNTVYLLMNSLKPEDTAVYYCAARTSSTKYYYWGQGTQVTVSS,high polyreactivity
4,QDQLVESGGGLVQAGGSLRLSCAASGSTLTRNAMGWYRQAPGKERELVAAITSGGRTKYADSVKGRFTISRDNAKNTVYLQMNSLKPEDTAVYYCAKGGPPGQRGYDYWGQGTQVTVSS,high polyreactivity
5,QDQLVESGGGLVQAGGSLRLSCAASGGTFGGYAMGWYRQAPGKERELVAAITYSGGSTYYADSVKGRFTISRDNAKNTVYLQMNSLKPEDTAVYYCAQYHYRYYYWGQGTQVTVSS,high polyreactivity
6,QVQLVESGGGLVQAGGSLRLSCAASGSTFVYYAMGWYRQAPGKERELVAAITASGGGTYYADSVKGRFTISRDNAKNTVYLQMNSLKPEDTAVYYCNRGYDYWGQGTQVTVSS,low polyreactivity
7,QVQLVASGGGLVQAGGSLRLSCAASGRTFKYNTMGWYRQAPGKERELVAVISRSGGRTYYADSVKGRFTISRDNAKNTVYLQMNSLKPEDTAVYYCAKGIPYADPQSAYDDYWGQGTQVTVSS,high polyreactivity
8,QVQLVESGGGLVQAGGSLRLSCAASGSIFATYAMGWYRQAPGKEMELVAVISCGGGRTNYADSVKGRFTISRDNAKNTVYLQLNSLKPEDTAVYYCAAGGYWRIATDGPRGGDYWGQGTQVTVSS,high polyreactivity
9,QVHLVESGGALVQAGGSLPLSFSASGSIFTYYAMGWYRQQPGKERELVAAINSGGRTNYADSVKGRFTISRDNAKNTVYLQMNSLKPEDTAVYYCAKYGVLQYGYWGQGTQVTVSS,low polyreactivity
10,QVQHVESGGGLVQAGGSLRLSCAASGTTFYFYAMGWYRQAPGKERELVAAITYSGGSTYYADSVKGRFTISRDNAKNTVYLQMNSLKPEDTAVYYCAAQWRRHSTRSRYYYWGQGTQVTVSS,high polyreactivity
11,QVQLVESGGGLVQAGGSLRLSCAVSGRIFRRNVMGWYRQAPGKERELVAGISYSGDSTYYADSVKGRFTISRDNAKKTVYFQMNSLKPEDTAVYYCAAAVAHYRGMYYWGQGTQVTVSS,low polyreactivity
12,QVQLVESGGGLVQAGGSLRLSCAASGSIFPYNVMGWYRQAPGKERELVASIDGRGASTYYADSVKGRFTISRDNAKNTVYLQKNSLKPEDTAVYYCAAGYEPYAAWYYYWGQGTQVTVAS,low polyreactivity
13,QVQLVESGGGLVQAGGSLRLSCAASGFTFGAYAMGWYRQAPGKERELVAAITRSSTSTFYADSVKGRFTISRDNAKNTVYLQMNSLKPEDTAVYYCAARGRPRYYSYAGDYWGQGTQVTVSS,high polyreactivity
14,QVQLVESGGGLVQAGGSLRLSCAASGSIFSSYAMGWYRQAPGKERELVAAITRRGGSTYYADSVKGRFTISRDNAKNTVYLQMNSLKPEDTAVYYCATGITARSRYGYWGQGTQVTVSS,high polyreactivity
15,QVQLVESGGGLVQAGGSLRLSCAASGSIFNSNAMGWYRQAPGKERELVAVISWSDGSTRYADSVKGRFTISRDNVKNTVYLQMNSLKPEDTAVYYCAADYLDGIYEYDYWGQGTQVTVSS,low polyreactivity
16,QVQLVESGGGLVQAGGSLRLSCAASGRTFWWYGMGWYRQAPGKDRELVAAITNGGSTNYADSVKGRFTISRDIAKNTVYLQMNSLKPEDTAVYYCAARTRSWYGGFYKYYYWGQGTQVTVSS,high polyreactivity
17,QVQLVESGGGLVQAGGSLRLSCAASGSIFQGNAMGWYRQAPGKERELVAGITRSGGSTYYADSVKGRFTISRDNAKNTVYLQMNSLKPEDTAVYYCAADYSSDGDYWGQGTQVTVSS,low polyreactivity
18,QVQLVESGGGLVQAGGSLRLSCAASGRTFERYAMGWYRQAPGQERELVAGITGRGGRTYYADSVKGRFTISRDNAKNTVYLQRNSLKPEDTAVYYCNKDTWVIHNYRYDYWGQGTQVTVSS,low polyreactivity
19,QVQLVESGGGLVQAGGSLRLSCAASGGIFPVNAMGWYRQAPGKERELVAAITWRGGRTYYADSVKGRFTISRDNSKNTVYLQMNSLKPEDTAVYYCAAYKGSSKYDYWGQGTQVTVSS,high polyreactivity
20,QVQLVESGGGLVQAGGSLRLSCAASGRIFPDYDMGWYRQAPGKERELVAAITQRGGSTYADSVKGRFTISRDNAKNTVYLQMNSLKPEDTAVYYCAREYYEAYEYWGQGTQVTVSS,low polyreactivity
21,QVQLVESGGGLVQAGGSLRLSCAASGLTFSIYAMGWYRQAPGKERELVAGISQSGGSTYADSVKGRFTISRDNAKNTVYLQMNSLKPADTAVYYCAKEFEWVGSPSTVDGLDYWGHGTQVTVSS,low polyreactivity
